B1: 2'-NH2 38B (ssRNA)
RNA: GGGAGGACGAUGCGGGCUGCGGUGCGCAUGUGUGGAAGACAGAGGGAGGUUAGAAUCGUGCCGCCAGACGACUCGCCCGA
modifications: 2'-NH2 at all C and U
B2: 26A (ssRNA)
RNA: GGGAGCUCAGAAUAAACGCUCAACGUCAGAAGGCAACGUAUAGGCAAGCACACUUCGACAUGAGGCCCGGAUCCGGC
B3: 7A (ssRNA)
RNA: GGGAGCUCAGAAUAAACGCUCAAUCGGCGAGCUAACCAAGACACUCGCUGCACUUCGACAUGAGGCCCGGAUCCGGC
B4: 12A (ssRNA)
RNA: GGGAGCUCAGAAUAAACGCUCAAGGGGCAACGCUACAGACAAGUGCACCCAACUUCGACAUGAGGCCCGGAUCCGGC
B5: 5A (ssRNA)
RNA: GGGAGCUCAGAAUAAACGCUCAAAUCUCCUCCCGUCGAAGCUAACCUGGCCACUUCGACAUGAGGCCCGGAUCCGGC

How the values were obtained:
[1] = biological target: T1, basic fibroblast growth factor (bFGF, FGF-2) (UniProt P09038 P09038:135-288); assay: filter; biphasic, Kd1 (mole fraction 0.5); Kd2 = 180 nM; conditions: tags: Bachem California; 18 kDa, 154 amino acids
Method: (§1) This affinity screening allowed identification of those ligands with highest affinity for bFGF. Binding of a group of these ligands was analyzed over a range of bFGF concentrations (FIG. 8) and their dissociation constants (Kd's) were determined as described (Jellinek et al. (1993) Proc. Natl. Acad. Sci. U.S.A. 90:11227–11231) (Table IX). RNA concentrations were determined from their absorbance reading at […] (and were typically <100 pM). Binding reactions were done at 37° C. in phosphate buffered saline containing 0.01% human serum albumin and 1 mM DTT.
(§2) The minimal sequence information required for high-affinity binding to bFGF was examined for several of the 2'-NH_2 modified ligands by deletion analyses as described (Tuerk et al. (1990) J. Mol. Biol. 213:749–761).

[2] = biological target: T1, basic fibroblast growth factor (bFGF, …); assay: filter; binding curve in figure only; PBS, 0.01% HSA, 1 mM DTT, 37 C; conditions: tags: Bachem California; 18 kDa, 154 amino acids
Method: Binding curves for modified RNA ligands 21A, 38B and random RNAs were determined (FIG. 8). RNA concentrations were determined from their absorbance reading at 260 nm and were typically less than 100 pM. Binding reactions were conducted at 37° C. in phosphate buffered saline containing 0.01% human serum albumin and 1 mM DTT. Heparin competitively displaced RNA ligands from both sequence families (FIG. 3), although higher concentrations of heparin were required to displace members of family 2 from bFGF.
as §1

[3] = biological target: T1, basic fibroblast growth factor (bFGF, …); assay: inhibition; 125I-bFGF binding to high-affinity receptor, BHK cells, 4 C; conditions: tags: Bachem California; 18 kDa, 154 amino acids; label: 125I
Method: Receptor Binding Studies. bFGF was labeled with ^125I by the Iodo-Gen (Pierce) procedure as described by Moscatelli (1987) supra. […] The amount of 125I-bFGF bound to the low- and the high-affinity receptor sites was determined as described by Moscatelli (1987) supra.

[4] = biological target: T1, basic fibroblast growth factor (bFGF, …); assay: filter; monophasic; conditions: tags: Bachem California; 18 kDa, 154 amino acids
Method: as §1, §2

[5] = biological target: T1, basic fibroblast growth factor (bFGF, …); assay: filter; biphasic, Kd1 (mole fraction 0.5); Kd2 = 270 nM; conditions: tags: Bachem California; 18 kDa, 154 amino acids
Method: as §1, §2

T1 sequence (P09038 135-288, one chain of several): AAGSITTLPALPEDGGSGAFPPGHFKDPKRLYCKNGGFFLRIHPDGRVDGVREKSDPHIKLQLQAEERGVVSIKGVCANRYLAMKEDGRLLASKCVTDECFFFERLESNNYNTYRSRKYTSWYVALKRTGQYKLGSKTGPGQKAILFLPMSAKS

| Binder | IC50 [3] | other results |
| --- | --- | --- |
| GGACGGCGUGGUCCGAGGGUGGCGAGU (ssRNA, 2'-NH2 at all C and U) [2'-NH2 58A-t] | – | Kd [1]: 0.0018 µM |
| B1 | – | binding result [2]: binds |
| B2 | ~1 µM | – |
| GGAGGACGAUGCGGAACGGGAGGUACGAGAGCGGGAGC (ssRNA, 2'-NH2 at all C and U) [2'-NH2 34B-t] | – | Kd [4]: 0.003 µM |
| B3 | ~1 µM | – |
| B4 | > 1 µM | – |
| B5 | ~1 µM | – |
| GGUGUGUGGAAGACAGCGGGUGGUUC (ssRNA, 2'-NH2 at all C and U) [2'-NH2 21A-t] | – | Kd [5]: 0.0001 µM |
